# In the Human Domainome abundance scans (Beltran et al. 2025):
# ± gives the uncertainty stated by the source.
# Test: abundance fitness (aPCA) (normalised: wild type 0, dead -1); higher = more abundant; growth selection in yeast, the domain comes from the species named
# Conditions: Homo sapiens
row,Substance,abundance fitness
1,"Lipoamide acyltransferase component of branched-chain alpha-keto acid dehydrogenase complex, mitochondrial Y208A, P11182",0.018 ± 0.036
2,"Lipoamide acyltransferase component of branched-chain alpha-keto acid dehydrogenase complex, mitochondrial Y208C, P11182",0.037 ± 0.092
3,"Lipoamide acyltransferase component of branched-chain alpha-keto acid dehydrogenase complex, mitochondrial Y208D, P11182",-0.213 ± 0.06
4,"Lipoamide acyltransferase component of branched-chain alpha-keto acid dehydrogenase complex, mitochondrial Y208E, P11182",-0.032 ± 0.041
5,"Lipoamide acyltransferase component of branched-chain alpha-keto acid dehydrogenase complex, mitochondrial Y208F, P11182",-0.061 ± 0.084
6,"Lipoamide acyltransferase component of branched-chain alpha-keto acid dehydrogenase complex, mitochondrial Y208G, P11182",-0.172 ± 0.036
7,"Lipoamide acyltransferase component of branched-chain alpha-keto acid dehydrogenase complex, mitochondrial Y208H, P11182",-0.075 ± 0.097
8,"Lipoamide acyltransferase component of branched-chain alpha-keto acid dehydrogenase complex, mitochondrial Y208I, P11182",-0.072 ± 0.063
9,"Lipoamide acyltransferase component of branched-chain alpha-keto acid dehydrogenase complex, mitochondrial Y208K, P11182",0.051 ± 0.06
10,"Lipoamide acyltransferase component of branched-chain alpha-keto acid dehydrogenase complex, mitochondrial Y208L, P11182",-0.032 ± 0.047
11,"Lipoamide acyltransferase component of branched-chain alpha-keto acid dehydrogenase complex, mitochondrial Y208M, P11182",0.012 ± 0.052
12,"Lipoamide acyltransferase component of branched-chain alpha-keto acid dehydrogenase complex, mitochondrial Y208N, P11182",-0.162 ± 0.061
13,"Lipoamide acyltransferase component of branched-chain alpha-keto acid dehydrogenase complex, mitochondrial Y208P, P11182",-0.283 ± 0.044
14,"Lipoamide acyltransferase component of branched-chain alpha-keto acid dehydrogenase complex, mitochondrial Y208S, P11182",-0.095 ± 0.041
15,"Lipoamide acyltransferase component of branched-chain alpha-keto acid dehydrogenase complex, mitochondrial Y208T, P11182",-0.073 ± 0.074
16,"Lipoamide acyltransferase component of branched-chain alpha-keto acid dehydrogenase complex, mitochondrial Y208V, P11182",-0.02 ± 0.039
17,"Lipoamide acyltransferase component of branched-chain alpha-keto acid dehydrogenase complex, mitochondrial Y208W, P11182",-0.186 ± 0.05
18,"Nanos homolog 2 D85A, P60321",0.03 ± 0.11

row,Substance,abundance fitness
1,"Nanos homolog 2 D106A, P60321",-0.206 ± 0.098
2,"Nanos homolog 2 H74A, P60321",-0.238 ± 0.12
3,"Nanos homolog 2 H95Q, P60321",-0.092 ± 0.071
4,"Nanos homolog 2 I92Y, P60321",-0.308 ± 0.14
5,"Nanos homolog 2 K67R, P60321",-0.197 ± 0.05
6,"Nanos homolog 2 K82R, P60321",-0.243 ± 0.069
7,"Nanos homolog 2 K112R, P60321",-0.171 ± 0.096
8,"Nanos homolog 2 L111K, P60321",0.292 ± 0.074
9,"Nanos homolog 2 Q80C, P60321",0.191 ± 0.11
10,"Nanos homolog 2 Q107R, P60321",-0.016 ± 0.12
11,"Nanos homolog 2 R73E, P60321",0.102 ± 0.067
12,"Nanos homolog 2 S77R, P60321",-0.003 ± 0.069
13,"Nanos homolog 2 V87G, P60321",-0.082 ± 0.088
14,"Nanos homolog 2 V89S, P60321",0.094 ± 0.066
15,"Nanos homolog 2 V97I, P60321",0.008 ± 0.12
16,"Nanos homolog 2 V100L, P60321",-0.123 ± 0.077
17,"Nanos homolog 2 Y76F, P60321",-0.14 ± 0.13
18,"Nanos homolog 2 Y113H, P60321",0.057 ± 0.11
